Patent publication US20150374794A1 (Novo Nordisk, published 2015)
Numbered stars: 1 amine (or outer) side, 2 acyl side, 3 side chain; on linkers, the order of the positions; unused ones are H or OH. Square brackets hold non-standard residues; d marks the D form. Side chains are listed from the residue outwards. Ends that are not written are not given here. * marks the point of attachment. C18 diacid = O=C(O)CCCCCCCCCCCCCCCCC(=O)*; γGlu = O=C(O)[C@H](CCC(=O)[*:2])N[*:1]; Ac4c = NC1(C(=O)O)CCC1; AEEA = NCCOCCOCC(=O)O; Aib = CC(C)(N)C(=O)O

B1: N^ε28-[2-[2-[2-[[2-[2-[2-[[(4S)-4-carboxy-4-[[(4S)-4-carboxy-4-[[(4S)-4-carboxy-4-(17-carboxyheptadecanoylamino)butanoyl]amino]butanoyl]amino]butanoyl]amino]eth … (peptide)
peptide: H[Aib]QGTFTSDVSKYLDLRRAQDFVQWLLK([AEEA-AEEA-γGlu-γGlu-γGlu-C18 diacid])T-NH2
modifications: N-terminus assumed
SMILES: CC(C)C[C@H](NC(=O)[C@H](CC(=O)O)NC(=O)[C@H](CC(C)C)NC(=O)[C@H](Cc1ccc(O)cc1)NC(=O)[C@H](CCCCN)NC(=O)[C@H](CO)NC(=O)[C@@H](NC(=O)[C@H](CC(=O)O)NC(=O)[C@H](CO)NC(=O)[C@@H](NC(=O)[C@H](Cc1ccccc1)NC(=O)[C@@H](NC(=O)CNC(=O)[C@H](CCC(N)=O)NC(=O)C(C)(C)NC(=O)[C@@H](N)Cc1c[nH]cn1)[C@@H](C)O)[C@@H](C)O)C(C)C)C(=O)N[C@@H](CCCNC(=N)N)C(=O)N[C@@H](CCCNC(=N)N)C(=O)N[C@@H](C)C(=O)N[C@@H](CCC(N)=O)C(=O)N[C@@H](CC(=O)O)C(=O)N[C@@H](Cc1ccccc1)C(=O)N[C@H](C(=O)N[C@@H](CCC(N)=O)C(=O)N[C@@H](Cc1c[nH]c2ccccc12)C(=O)N[C@@H](CC(C)C)C(=O)N[C@@H](CC(C)C)C(=O)N[C@@H](CCCCNC(=O)COCCOCCNC(=O)COCCOCCNC(=O)CC[C@H](NC(=O)CC[C@H](NC(=O)CC[C@H](NC(=O)CCCCCCCCCCCCCCCCC(=O)O)C(=O)O)C(=O)O)C(=O)O)C(=O)N[C@H](C(N)=O)[C@@H](C)O)C(C)C
B2: N^ε28-[2-[2-[2-[[2-[2-[2-[[(4S)-4-carboxy-4-[[(4S)-4-carboxy-4-[[(4S)-4-carboxy-4-(17-carboxyheptadecanoylamino)butanoyl]amino]butanoyl]amino]butanoyl]amino]eth … (peptide)
peptide: H[Aib]QGTFTSDVSRYLDARRAQDFVQWLLK([AEEA-AEEA-γGlu-γGlu-γGlu-C18 diacid])T-NH2
modifications: N-terminus assumed
SMILES: CC(C)C[C@H](NC(=O)[C@H](Cc1ccc(O)cc1)NC(=O)[C@H](CCCNC(=N)N)NC(=O)[C@H](CO)NC(=O)[C@@H](NC(=O)[C@H](CC(=O)O)NC(=O)[C@H](CO)NC(=O)[C@@H](NC(=O)[C@H](Cc1ccccc1)NC(=O)[C@@H](NC(=O)CNC(=O)[C@H](CCC(N)=O)NC(=O)C(C)(C)NC(=O)[C@@H](N)Cc1c[nH]cn1)[C@@H](C)O)[C@@H](C)O)C(C)C)C(=O)N[C@@H](CC(=O)O)C(=O)N[C@@H](C)C(=O)N[C@@H](CCCNC(=N)N)C(=O)N[C@@H](CCCNC(=N)N)C(=O)N[C@@H](C)C(=O)N[C@@H](CCC(N)=O)C(=O)N[C@@H](CC(=O)O)C(=O)N[C@@H](Cc1ccccc1)C(=O)N[C@H](C(=O)N[C@@H](CCC(N)=O)C(=O)N[C@@H](Cc1c[nH]c2ccccc12)C(=O)N[C@@H](CC(C)C)C(=O)N[C@@H](CC(C)C)C(=O)N[C@@H](CCCCNC(=O)COCCOCCNC(=O)COCCOCCNC(=O)CC[C@H](NC(=O)CC[C@H](NC(=O)CC[C@H](NC(=O)CCCCCCCCCCCCCCCCC(=O)O)C(=O)O)C(=O)O)C(=O)O)C(=O)N[C@H](C(N)=O)[C@@H](C)O)C(C)C
B3: N^ε28-[2-[2-[2-[[2-[2-[2-[[(4S)-4-carboxy-4-[[(4S)-4-carboxy-4-[[(4S)-4-carboxy-4-(17-carboxyheptadecanoylamino)butanoyl]amino]butanoyl]amino]butanoyl]amino]eth … (peptide)
peptide: H[Aib]QGTFTSDVSRYLDLRRAQDFVQWLLK([AEEA-AEEA-γGlu-γGlu-γGlu-C18 diacid])T-NH2
modifications: N-terminus assumed
SMILES: CC(C)C[C@H](NC(=O)[C@H](CC(=O)O)NC(=O)[C@H](CC(C)C)NC(=O)[C@H](Cc1ccc(O)cc1)NC(=O)[C@H](CCCNC(=N)N)NC(=O)[C@H](CO)NC(=O)[C@@H](NC(=O)[C@H](CC(=O)O)NC(=O)[C@H](CO)NC(=O)[C@@H](NC(=O)[C@H](Cc1ccccc1)NC(=O)[C@@H](NC(=O)CNC(=O)[C@H](CCC(N)=O)NC(=O)C(C)(C)NC(=O)[C@@H](N)Cc1c[nH]cn1)[C@@H](C)O)[C@@H](C)O)C(C)C)C(=O)N[C@@H](CCCNC(=N)N)C(=O)N[C@@H](CCCNC(=N)N)C(=O)N[C@@H](C)C(=O)N[C@@H](CCC(N)=O)C(=O)N[C@@H](CC(=O)O)C(=O)N[C@@H](Cc1ccccc1)C(=O)N[C@H](C(=O)N[C@@H](CCC(N)=O)C(=O)N[C@@H](Cc1c[nH]c2ccccc12)C(=O)N[C@@H](CC(C)C)C(=O)N[C@@H](CC(C)C)C(=O)N[C@@H](CCCCNC(=O)COCCOCCNC(=O)COCCOCCNC(=O)CC[C@H](NC(=O)CC[C@H](NC(=O)CC[C@H](NC(=O)CCCCCCCCCCCCCCCCC(=O)O)C(=O)O)C(=O)O)C(=O)O)C(=O)N[C@H](C(N)=O)[C@@H](C)O)C(C)C
B4: N^ε28-[(4S)-4-carboxy-4-[[2-[2-[2-[[2-[2-[2-[[(4S)-4-carboxy-4-[[(4S)-4-carboxy-4-(17-carboxyheptadecanoylamino)butanoyl]amino]butanoyl]amino]ethoxy]ethoxy]acet … (peptide)
peptide: H[Aib]HGTFTSDLSKYLESRRAREFVAWLLK([γGlu-AEEA-AEEA-γGlu-γGlu-C18 diacid])T-NH2
modifications: N-terminus assumed
SMILES: CC(C)C[C@H](NC(=O)[C@H](Cc1c[nH]c2ccccc12)NC(=O)[C@H](C)NC(=O)[C@@H](NC(=O)[C@H](Cc1ccccc1)NC(=O)[C@H](CCC(=O)O)NC(=O)[C@H](CCCNC(=N)N)NC(=O)[C@H](C)NC(=O)[C@H](CCCNC(=N)N)NC(=O)[C@H](CCCNC(=N)N)NC(=O)[C@H](CO)NC(=O)[C@H](CCC(=O)O)NC(=O)[C@H](CC(C)C)NC(=O)[C@H](Cc1ccc(O)cc1)NC(=O)[C@H](CCCCN)NC(=O)[C@H](CO)NC(=O)[C@H](CC(C)C)NC(=O)[C@H](CC(=O)O)NC(=O)[C@H](CO)NC(=O)[C@@H](NC(=O)[C@H](Cc1ccccc1)NC(=O)[C@@H](NC(=O)CNC(=O)[C@H](Cc1c[nH]cn1)NC(=O)C(C)(C)NC(=O)[C@@H](N)Cc1c[nH]cn1)[C@@H](C)O)[C@@H](C)O)C(C)C)C(=O)N[C@@H](CC(C)C)C(=O)N[C@@H](CCCCNC(=O)CC[C@H](NC(=O)COCCOCCNC(=O)COCCOCCNC(=O)CC[C@H](NC(=O)CC[C@H](NC(=O)CCCCCCCCCCCCCCCCC(=O)O)C(=O)O)C(=O)O)C(=O)O)C(=O)N[C@H](C(N)=O)[C@@H](C)O
B5: N^ε28-[(4S)-4-carboxy-4-[[(4S)-4-carboxy-4-[[2-[2-[2-[[2-[2-[2-[[(4S)-4-carboxy-4-(17-carboxyheptadecanoylamino)butanoyl]amino]ethoxy]ethoxy]acetyl]amino]ethoxy … (peptide)
peptide: H[Aib]QGTFTSDLSKYLDSRRAREFVQWLLK([γGlu-γGlu-AEEA-AEEA-γGlu-C18 diacid])T-NH2
modifications: N-terminus assumed
SMILES: CC(C)C[C@H](NC(=O)[C@H](Cc1ccc(O)cc1)NC(=O)[C@H](CCCCN)NC(=O)[C@H](CO)NC(=O)[C@H](CC(C)C)NC(=O)[C@H](CC(=O)O)NC(=O)[C@H](CO)NC(=O)[C@@H](NC(=O)[C@H](Cc1ccccc1)NC(=O)[C@@H](NC(=O)CNC(=O)[C@H](CCC(N)=O)NC(=O)C(C)(C)NC(=O)[C@@H](N)Cc1c[nH]cn1)[C@@H](C)O)[C@@H](C)O)C(=O)N[C@@H](CC(=O)O)C(=O)N[C@@H](CO)C(=O)N[C@@H](CCCNC(=N)N)C(=O)N[C@@H](CCCNC(=N)N)C(=O)N[C@@H](C)C(=O)N[C@@H](CCCNC(=N)N)C(=O)N[C@@H](CCC(=O)O)C(=O)N[C@@H](Cc1ccccc1)C(=O)N[C@H](C(=O)N[C@@H](CCC(N)=O)C(=O)N[C@@H](Cc1c[nH]c2ccccc12)C(=O)N[C@@H](CC(C)C)C(=O)N[C@@H](CC(C)C)C(=O)N[C@@H](CCCCNC(=O)CC[C@H](NC(=O)CC[C@H](NC(=O)COCCOCCNC(=O)COCCOCCNC(=O)CC[C@H](NC(=O)CCCCCCCCCCCCCCCCC(=O)O)C(=O)O)C(=O)O)C(=O)O)C(=O)N[C@H](C(N)=O)[C@@H](C)O)C(C)C

Molecular target: T1, human GLP-1 receptor (human, UniProt P43220 24-463)
Assay: cell-based or functional assay

Binder | EC50 GLP-1R, CRE luciferase reporter gene assay in BHK cells [nM]
B1 | 0.004
B2 | 0.003
H[Ac4c]HGTFTSDLSKYLESRRAQDFVQWLLK([Gly-Ser-Glu-Gly-Ser-γGlu-γGlu-C18 diacid])T-NH2 | 0.003
B3 | 0.005
B4 | 0.0195
H[Ac4c]QGTFTSDLSKYLEERRARDFVQWLLK([Gly-Ser-Glu-Gly-Ser-γGlu-γGlu-C18 diacid])T-NH2 | 0.0058
H[Aib]QGTFTSDLSKYLDLKRAREFVQWLLK([γGlu-γGlu-AEEA-AEEA-γGlu-C18 diacid])T-NH2 | 0.009
B5 | 0.0053
H[Aib]HGTFTSDLSKYLESRRARDFVQWLLK([Gly-Ser-Glu-Gly-Ser-γGlu-γGlu-C18 diacid])T-NH2 | 0.004
H[Aib]QGTFTSDLSKYLDLRRARDFVQWLLK([Gly-Ser-Glu-Ser-γGlu-γGlu-C18 diacid])T-NH2 | 0.027
H[Ac4c]QGTFTSDLSKYLDLKRAREFVQWLLK([Gly-Ser-Glu-Gly-Ser-γGlu-γGlu-C18 diacid])T-NH2 | 0.044

Molecular target: T2, human glucagon receptor (human, UniProt P47871 26-477)
T2 sequence (P47871 26-477): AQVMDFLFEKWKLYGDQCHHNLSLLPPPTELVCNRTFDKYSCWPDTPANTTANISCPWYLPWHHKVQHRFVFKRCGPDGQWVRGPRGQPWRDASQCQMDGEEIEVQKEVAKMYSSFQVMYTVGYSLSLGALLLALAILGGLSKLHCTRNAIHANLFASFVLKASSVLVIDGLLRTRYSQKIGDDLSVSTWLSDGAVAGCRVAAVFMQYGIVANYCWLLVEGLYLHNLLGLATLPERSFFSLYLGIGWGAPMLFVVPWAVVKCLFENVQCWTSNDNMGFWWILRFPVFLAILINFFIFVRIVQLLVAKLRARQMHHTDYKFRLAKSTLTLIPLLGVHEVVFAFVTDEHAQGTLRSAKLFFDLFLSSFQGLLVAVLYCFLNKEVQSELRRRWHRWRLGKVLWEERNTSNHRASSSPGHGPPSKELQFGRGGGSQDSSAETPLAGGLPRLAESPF
Assay: cell-based or functional assay

Binder | EC50 GlucR, CRE luciferase reporter gene assay in BHK cells [nM]
B1 | 0.017
B2 | 0.057
H[Ac4c]HGTFTSDLSKYLESRRAQDFVQWLLK([Gly-Ser-Glu-Gly-Ser-γGlu-γGlu-C18 diacid])T-NH2 | 0.001
B3 | 0.049
B4 | 0.0029
H[Ac4c]QGTFTSDLSKYLEERRARDFVQWLLK([Gly-Ser-Glu-Gly-Ser-γGlu-γGlu-C18 diacid])T-NH2 | 0.113
H[Aib]QGTFTSDLSKYLDLKRAREFVQWLLK([γGlu-γGlu-AEEA-AEEA-γGlu-C18 diacid])T-NH2 | 0.0087
B5 | 0.0063
H[Aib]HGTFTSDLSKYLESRRARDFVQWLLK([Gly-Ser-Glu-Gly-Ser-γGlu-γGlu-C18 diacid])T-NH2 | 0.002
H[Aib]QGTFTSDLSKYLDLRRARDFVQWLLK([Gly-Ser-Glu-Ser-γGlu-γGlu-C18 diacid])T-NH2 | 0.0305
H[Ac4c]QGTFTSDLSKYLDLKRAREFVQWLLK([Gly-Ser-Glu-Gly-Ser-γGlu-γGlu-C18 diacid])T-NH2 | 0.008

Molecular target: T2, human glucagon receptor
Assay: displacement of 125I-glucagon, membranes with human glucagon receptor, SPA
Description: (§1) The receptor binding of each compound to the human glucagon receptor was measured in a displacement binding assay. […] Each derivative was added in a series of concentrations to isolated membranes containing the human glucagon receptor and displacement of the labelled ligand is monitored. The receptor binding was reported as the concentration at which half of the labelled ligand is displaced from the receptor, the IC₅₀ value.

Binder | IC50 [nM]
B1 | 5.7
B2 | 11.3
H[Ac4c]HGTFTSDLSKYLESRRAQDFVQWLLK([Gly-Ser-Glu-Gly-Ser-γGlu-γGlu-C18 diacid])T-NH2 | 0.7
B3 | 16.2
B4 | 0.8
H[Ac4c]QGTFTSDLSKYLEERRARDFVQWLLK([Gly-Ser-Glu-Gly-Ser-γGlu-γGlu-C18 diacid])T-NH2 | 3.9
H[Aib]QGTFTSDLSKYLDLKRAREFVQWLLK([γGlu-γGlu-AEEA-AEEA-γGlu-C18 diacid])T-NH2 | 4
B5 | 2.1
H[Aib]HGTFTSDLSKYLESRRARDFVQWLLK([Gly-Ser-Glu-Gly-Ser-γGlu-γGlu-C18 diacid])T-NH2 | 0.1
H[Aib]QGTFTSDLSKYLDLRRARDFVQWLLK([Gly-Ser-Glu-Ser-γGlu-γGlu-C18 diacid])T-NH2 | 18.4
H[Ac4c]QGTFTSDLSKYLDLKRAREFVQWLLK([Gly-Ser-Glu-Gly-Ser-γGlu-γGlu-C18 diacid])T-NH2 | 3.1

Molecular target: T1, human GLP-1 receptor
Assay: displacement of 125I-GLP-1(7-36)NH2, membranes with human GLP-1R, SPA
Description: as §1, with “human GLP-1” for “human glucagon”, “ligand was” for “ligand is”

Binder | IC50 [nM]
B1 | 0.7
B2 | 0.5
H[Ac4c]HGTFTSDLSKYLESRRAQDFVQWLLK([Gly-Ser-Glu-Gly-Ser-γGlu-γGlu-C18 diacid])T-NH2 | 2.6
B3 | 1.5
B4 | 1.5
H[Ac4c]QGTFTSDLSKYLEERRARDFVQWLLK([Gly-Ser-Glu-Gly-Ser-γGlu-γGlu-C18 diacid])T-NH2 | 0.2
H[Aib]QGTFTSDLSKYLDLKRAREFVQWLLK([γGlu-γGlu-AEEA-AEEA-γGlu-C18 diacid])T-NH2 | 0.5
B5 | 0.3
H[Aib]HGTFTSDLSKYLESRRARDFVQWLLK([Gly-Ser-Glu-Gly-Ser-γGlu-γGlu-C18 diacid])T-NH2 | 0.2
H[Aib]QGTFTSDLSKYLDLRRARDFVQWLLK([Gly-Ser-Glu-Ser-γGlu-γGlu-C18 diacid])T-NH2 | 1.1
H[Ac4c]QGTFTSDLSKYLDLKRAREFVQWLLK([Gly-Ser-Glu-Gly-Ser-γGlu-γGlu-C18 diacid])T-NH2 | 0.2
